Measured values published in PMC8530329 (PLoS Pathogens, 2021).

B1: RBD-chAb-25 (antibody, V domains shown)
VH: EVQLEESGGGLVKPGGSLKLSCAASGFTFSSYTMSWVRQSPEKRLEWVAEISSGGTYTNYPDTATGRFTISRDNAKNTLYLEMSSLRSEDTAMYYCANFGNYEEIAYWGQGTLVTVSA
VL: QIVLTQSPAIMSVSLGERVTMTCTASSSVSSSYLHWYQQKPGSSPKLWIYSTSNLASGVPARFSGSGSGTSYSLTISSMEAEDAATYYCHQYHRSPYTFGGGTKLEIK
notes: also called S-chAb-25 (in complex with S); source: Expi-293 cells, co-transfected, purified (protein G column)
B2: RBD-chAb-45 (antibody, V domains shown)
VH: EVQLQQSGPELVKPGASVKISCKTSGYTFTEYTIYWVKQSLGKSLEWIGGNNPNNDDTTYKQFFKGKATLTVDKSSSTAYMELRSLTSEDSAVYYCARDGYPYYYALDFWGQGTSVTVSS
VL: DIVMTQSQKFMSTSVGDRVSVTCKSSQNVGTNVAWYQQKPGQSPKALIYSASYRYSGVPDHFTGSGSGTDFTLTISNVQSADLAEYFCQQYNNYPWTFGGGTKLEIK
notes: also called S-chAb-45 (in complex with S); source: Expi-293 cells, co-transfected, purified (protein G column)

Target: T1, SARS-CoV-2 S_(fm2P) (SARS-CoV-2, original (reference) …, 682RRAR685 → 682GSAG685 | 986KV987 → 986PP987)
T1 construct: also called ectodomain of the SARS-CoV-2 S protein; SARS-CoV-2 S protein
Experiment: cryo-EM structure
Settings: both partners purified

Binder | stoichiometry N
B1 | 3 chAb (Fab) per S trimer
B2 | 3 chAb (Fab) per S trimer
